Results published in the domain aggregation screens of Martell et al. (2025).

Assay: soluble fraction after stress (log2 fold change); higher = more stays soluble; pooled small domains, quantitative proteomics
Settings: stress: pH 4
How it was run: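 Values are log2 fold changes, and higher ones mean more of the domain stayed soluble. Each fold change reflects the soluble amount of a domain after acid stress and is taken as a measure of aggregation propensity. The stress was pH 4, applied to pooled custom libraries of small protein domains analysed by high-throughput quantitative proteomics.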

Sequence	soluble fraction (log2)
HMALTAEVLRSLIKHHGLGQSIQRTAKAVGLSASTVKKYFDRIAAANLTWQEAKSRTQEELIASLQPT	0.107
HMTPVIINESGGDQDTRIEGLNDNNLLYVDASTDRVGVGVATPTQKLDVNGDVAISGGSLYLSQ	-0.0183
HMNTDIHRLLDEAFVRVDMTPDAQHLKEEIRANLVARVDELEASGVPSADAARRAIAELGDVRELL	-0.671
HMDQPVIDVREFGARGDGKQDDAPAIQAAVRLAEQLGGGRVVVPATREFYLLGSTIRIRGHHVTLTGPGAR	0.0605
HMADGKWTLTDAGYTFTYSDGRKARGTWEDIDGEWYHFDRNGIMETGWKTVGNIRYHFNQDGSL	-0.363
HMNSHLEEGRHGLQIGDPGIVRARIESDPEGETDMPVVVIDGRNISWNEFGRMVATYTGFQFKLEM	-0.58
HMDIVQLSEKINVMKMEIPAQAIGKTVLEVNFRARFDLNIIAIENGGKLVEVIKPDYVFREGDILFLSGS	-1.31
HMKGHQASTTWISERVKDIIKEDPTLGARKLQKRLEIHYNIELSYFKVWSGKNLQWMIFMVL	0.00439
HMSMISLPNFVGKDIETVKAWAKENGITLIINKVEDSAKKDTVISQNPTNSDYSKILKGSAFTVNIAKE	0.126
HMKGYIGESKARNIALKKAPGASITKFEFDKDDGIAVYEVELRKGIYEYELKINAVTGAIIEFEKDIE	0.147
HMGTKDVNAAPSAVGRTYDEAIEILNGYKAGYLEEYSDTVPKGTVISQSVQDGQVVIVVSLGPKPS	-0.18
HMTEAIDVPNLVGQNYSDVKSNSSYKFNWDIINVYDSGKPEGEIIKQEPEAGSKKVKENAVITLTVN	-0.0209
HMNKITIDQAKEIALNHAKLTAEQVSFIRTESEFDDGIEKYNIEFYYNNQKYDYDINAVNGQIIQYDLEG	-0.23
HMLDKEDNANAGKTLLERELSRAHLSDVEHRELAQRLHLASEQELYIKIGSGDLSIIQALNRAKEFKDT	-0.8
HMTLTIEDQLRRLRARLGRGRAFLFSDVLVNPHDRTEIAVTLLALLELIKRREAQASQSYLFGPIEVAAA	-1.33
HMGVPTEQQSLIGKSGIAATDLRPSGKVEIDGKRYDAVSNYAGFIAKGTPISVVRYETGQIYVE	0.0721
HMVNIPEIAKKFGKSTSEVFEQIQIGEKHEMEHTNDPKKARKIALDHLSDDMDYYKKLKKLG	≥ 0.43
HMGRENGTVKWFNTSKGFGFITRDDGGDVFVHFRSIQGEGHRALQEGQRVSYVVANRDKGLQAEDVTILN	-0.107
HMNVGKRLKSLREKYKFSLEEVAKKIKSSAGAISRYENNERKINSESLIRLSNLYNVSPEYILYG	0.391
HMSYFNEYEVGDTIRVVNGPLADQISTITAIDKEKGLVNISTVFFGRENNVQVSINDIEKYN	-0.903
HMRYEESVTLGERLLNQSLVALKADNIDDALWERFLREEAGEKSRQEILSDIGLGKRLPVVVAKRLLAPS	-0.982
HMERDVNQLTPRERDILKLIAQGLPNKMIARRLDITESTVKVHVKHMLKKMKLKSRVEAAVWVHQERI	0.0307
HMDASSAVQFGSLLRDARRRQGLSQAELGGDKYSGSYISHLESGRRVATPEVIEFLSRRLGVSPLEWGVS	-0.026
HMANTSAVIKQPGLVKLFAQHFVRNGFNAMKAAEAAGFVRPSPTFVRNLADSKPVKDAISELLGPYNDA	0.22
HMPWLIAVTVDGVNLPRFLRRAGEMGLLLTGVRIRGKHLSAFAREDDVPPLRMMAENGGWRFSVGN	-0.302

Sequence	soluble fraction (log2)
HMKEVKPSDFFLSKLDEDHNLIEKFNALSSFKQKEFIEYIDSAKQEKTKHDRFEKIKPILLSNIGLNDKYR	-0.102
HMELLEVSVIIREADSTGWSAARQGMEQAAADLGAELRFLTLSQSNSAEEQRSLLAREVEGGADAVVLV	≥ 0.43
HMLPSWLPTDAWEAFLEARVAMKARPTERAKGLLLGELSKLVSQGQDARAVLEQSVQRGWRGLFPVK	0.0676
HMLPPLGDQELELLRFITESAPITVREAAESYGKDRGLARTTVLTMMERLRAKGYLTRSESGAANEYSP	-0.148
HMNPDMIAGVLKVPAAAGRLRSALFELGVVDDESYDDDGASRLTVTASQSDLERIVAQAGLVFEDVLVERR	-1.3
HMDYARYGLSEKEAELIELIAQGMNNKEISAEIYLSEGTVRNYISELLEKLELRDRTQLAVYYYTHR	-1.52
HMDEEEKGEVEVPNLIGLTRKEAKKTLEEEGLLIETKESLKTNLDDEYEKIKSQLPKAGIKIKQGSTVYVD	0.183
HMKQFVVQYYGIDGEVINSVYKNGMSDLTSYEPEKIDGKNFKGWSLSEDSKKVIDENYRINSDVNLYAVYT	0.15
HMELADNFAKLILTARESKGWTQAQLGQRMAETINVIKSAESGKPPADSVIRKFEMILGIELM	-0.121
HMLELDRTNLLGVFGSKSNPYALIMLSNGEMLKLSIGDQFLGWRVYAIDQTTVHVQNGKNQEILRIP	-0.772
HMQASPADLLSDRELEVFQLTGEWKTTRQIAQELHLSVKTIEYYREQIKRKLNLKSAAELTQHATAWVQRG	≥ 0.43
HMTEFWTGPITTVTKANFADWTLDTNQDRITANVWLTRADSKGLFNITPGKETAFDIVDYLSPLDTEWA	-1.82
HMAGPAGASEVANARDGDDETPLHMAARGGYPGIVRMLLAAGAKADAKSAAGLFPWNYAEDGSELHALLPR	-0.0731
HMNNTIKFSVDTTNSGKRLDIFLAENIKQFTRSYLKKIISNNQVKLNNLVANSPSIKVKHSDLILINILE	-0.62
HMSNIIIYPNPTNDGLIHIKGSKFPFNYALYNLSGKLIETGKKNQIQLNDRGVYLLKIQTEGQTYFKKII	-0.754
HMVDKSYIHNQQVASDTWTVQHNLGKYPAVSVADTGNNEVYGDVRHINENTVELKFSHPFSGVAFF	-0.0737
HMDVPTEEAILAYNNVPIELAAKFIGWSDITIRYALQEERAPFGMAAQNPKTGTWSYNISPGLLLKYKSGE	-0.39
HMEGNWGLWAKVPNRFAALTTDKDSALRRFKSKEDGEAWMASHGLKPERFDVLEIPADYKPA	-0.0509
HMSAGPQGRTPREDELTVGTKVYVSRVGASGVVSSDVSRGKVVVQVGALRLTAAVSELLLLDG	-0.472
HMDSVTMYATTGVNVRSGPSTSYSIVGGLDRGDKVTRIGTSGNWTKVVWGNGSAYVFSKYLQTGY	0.232
HMTEEELLERLDAVITEYKGKPGALIPVLQLAQGIFGYLPEVALKHIARQLDKPYSEVAGVVSFYSFFTT	-0.048
HMRGQGRILAMLKIQPEIATKDLAYLLGIRQQSLNELLKKLEKNSYVERRPSEKDRRVMVVHLTEKGKE	0.0202
HMGEVVRAPMPGNVLKMEVAQGQEVEEGDLLLVLEAMKMENDIVAPKGGIVIQLVVDKGMVVETDDPLVVI	-0.509
HMIANDDEIRKVVLEVIEEQPKAVEDVKNGRDRILDFLVGQVMKKTRGKANPSLASNLMKEEIEK	-0.11
HMRHKSNRRLTAAHQIEQQIQKLLMENTMEAKELKESLNFAAKDIDTVLSWLVDKDKVRINAINQYYWT	-1.28

Sequence	soluble fraction (log2)
HMHMNFGEILQTKRKEKGFTQEELAHQLLVSSKTISNWETNKTTPDIDNVIRISQLFDISLNQLLLE	-0.424
HMAPLATLEAGEDGSVKLPNLAGHSIREVAAALGGAKLSLIPIGSGTSWKQTPAPGAVLHSGDTVTVYF	0.0923
HMFYQLTENQRRILSSLEQNPRVSAAHLAEEIGISSRKVENNLKKLKEIGLLQRHGSPRKGYWSINQGW	0.15
HMSRVKQERLNRFVEAFEAYFRSVHPGEIDVEYLKSDEFGDIFESILHRVMHTASEEKMHRFKKILLNEM	-1.39
HMSAAMTESVLDGIPGLGATRKAALLAHFGSVRKLRAATSEQVREVPGIGPRLAETILATLHEP	0.0277
HMEYTVNHYPEKHRFEVVEDGLTAYVEYRLRGDALDIIHTIVPKNLEGRGIAATLVETAYKYAKEQ	-1.35
HMEVTLEEKLSYVEEYAKVHSHFSFRDLLKKQASKTQIVVTFLAILELMKTGKIQITQEHIFDDIVITAK	-0.649
HMSRLLERARDLMAKPGAWLSAEGGAYALRLSPDRRSRISLTLTETEFRALIDQPGLRVRPGGGWSGRA	-0.484
HMSTEEYDRGYEQGLEEAAKADDAWVANLIKIYSQNTPESMPETMKGRLDAFLYEQQRRAQSVPEM	-1.09
HMAIRPDAAVSSHAVKQRLQSLIRAEDPAAPLSDEALRLALSALGIGVSRRAVAKYRAEMGIPSSSQRKK	0.168
HMGSFFSKATAPVRTTGGDGLYKHGSIWFNTSTGRLFVYIPDDRYTGLLDTHNGDIGYWVDVS	-1.22
HMNIGSKLRYLIEEANITQRQLADALHISPSALNGYINQGKEPDYATLVRIADYFHTSTDYLLGHSNIR	-0.202
HMADPRFHSEIMLSKIESLLSGKADSDVSNYSIQGRSLTKMSLQELMDARESYDGLVKSEKAKLDAKY	-0.218
HMDRKARRKYIEQVVNDRKIETQEELLKLLTEAGFETTQATISRDIHALNIVKANDGDGHTHYVQLH	0.0264
HMVAEPVYGKVTEGPLNVRSAPSTDSEKVDSFSTGKVLTILETLDGWYKVEEGYVSADYVTIIDAAEAASS	-0.538
HMFDREKFIKLGQEFARVAFENVNKRATDRALKTAAKHYGLPSADELLARLGSSEIAARDVVAELYPNL	-0.28
HMKDSIQIPNVVGMTIKDAQSQYGKSFSIIEQNRTESTKPAGTILEQTPAGGDTVSKRDNIIIRVVVSLG	0.36
HMFDPAKQMQRIRKYAGMNRKEFSEWLNIPYRTMTDWELGNRTMPVYLLELIVYKVNHEIANA	-0.349
HMRDQAIDIYKTVHSVAEPYKEVFLLRVLGELSFKEISHIFGKSESWAKVTFFRAKIKVVEKREES	-1.04
HMNTDEYEQKRGEILDAAQRLIYTKGYERMSIQDILDELKISKGAFYHYFDSKQSLLEALTARMMTE	-0.408
HMKPPVQVIGKAVVTASSLNVRTGPGTGHGIITSLPRNTEVELLEQQGEWYKIRRGSTVGYVHGGYLKIN	-0.095
HMNPVVATTIILDGEIIKDNLAEANLSEEWLLEELKRQNFNDVKEVFYAEWLDGKQLFAYPYTK	-0.789
HMSSQGSLEKGYSALLDGRLDDAALAYGAALAANPMERDALLGLAYVAHSKGRREEAQALYRKVLR	-0.53
HMGPNYYDILEIPTDASPSEITQAFRKKALEWHPDKNPNNLEEATSRFIEIVEAYRVLSSKDSKLQYDTG	-0.422
HMFNVKAYEKAVKSYITKRKPLGEALDEEIMDELSVKFGIVDDALEDLFKQIQDAGISIVDKDGNPSPLAL	-1.78
